Laboratory results taken from article PMC314469, “Protein Interaction Networks by Proteome Peptide Scanning” (PLoS Biology, 2004).

T1: Rvs167 SH3 (RV167_YEAST), P39743
T1 chain: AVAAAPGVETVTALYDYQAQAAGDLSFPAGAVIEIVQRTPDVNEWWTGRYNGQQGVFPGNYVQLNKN

T2: Yfr024 SH3 (LSB3_YEAST), P43603
T2 chain: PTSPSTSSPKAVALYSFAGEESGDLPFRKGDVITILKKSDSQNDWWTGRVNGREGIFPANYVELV

T3: Myo5 SH3 (MYO5_YEAST), Q04439
T3 chain: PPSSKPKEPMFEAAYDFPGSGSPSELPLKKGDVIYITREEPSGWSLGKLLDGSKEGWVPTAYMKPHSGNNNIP

T4: Boi2 SH3 (BOI2_YEAST), P39969
T4 chain: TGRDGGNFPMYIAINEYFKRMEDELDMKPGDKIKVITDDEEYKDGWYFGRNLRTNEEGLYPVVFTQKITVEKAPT

T5: Boi1 SH3 (BOI1_YEAST), P38041
T5 chain: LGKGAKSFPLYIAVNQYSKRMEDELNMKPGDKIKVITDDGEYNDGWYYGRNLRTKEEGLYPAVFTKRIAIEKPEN

T6: Yhr016c SH3 (YSC84_YEAST), P32793
T6 chain: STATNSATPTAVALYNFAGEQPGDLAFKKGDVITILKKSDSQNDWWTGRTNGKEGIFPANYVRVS


Assays:
Experiment in all cases: SPOT array
[1] = molecular target: T1, Rvs167 SH3 (RV167_YEAST), P39743
[2] = molecular target: Sho1 SH3 (SHO1_YEAST), P40073
[3] = molecular target: T2, Yfr024 SH3 (LSB3_YEAST), P43603
[4] = molecular target: T3, Myo5 SH3 (MYO5_YEAST), Q04439
[5] = molecular target: T4, Boi2 SH3 (BOI2_YEAST), P39969
[6] = molecular target: T5, Boi1 SH3 (BOI1_YEAST), P38041
[7] = molecular target: T6, Yhr016c SH3 (YSC84_YEAST), P32793

Sequence of Sho1 SH3 (SHO1_YEAST), P40073 (P40073 295-366): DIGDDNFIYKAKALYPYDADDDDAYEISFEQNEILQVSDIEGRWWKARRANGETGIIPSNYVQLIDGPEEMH

Row | Binder | normalised SPOT signal, Boehringer light units (BLU); mean over the file's lines of this peptide [1] | normalised SPOT signal, Boehringer light units (BLU); mean over the file's lines of this peptide [2] | normalised SPOT signal, Boehringer light units (BLU); mean over the file's lines of this peptide [3] | normalised SPOT signal, Boehringer light units (BLU); mean over the file's lines of this peptide [4] | normalised SPOT signal, Boehringer light units (BLU); mean over the file's lines of this peptide [5] | normalised SPOT signal, Boehringer light units (BLU); mean over the file's lines of this peptide [6] | normalised SPOT signal, Boehringer light units (BLU); mean over the file's lines of this peptide [7]
1 | QVYEKTIPLFPPEI [YDR416W 606-619] | 22.8 | 31.6 | 9.3 | 153 | 3.6 | 11 | 5.4
2 | QPPDRNLPSHPSSN [YGR143W 154-167] | 48.2 | 78.5 | 48.8 | 156 | 13.7 | 19.4 | 19.4
3 | QNGLRFNPDVPKLW [YDR449C 169-182] | 22.1 | 37.6 | 86.7 | 260 | 0 | 64.6 | 8.3
4 | QLINRFMPHFPSSP [YHR036W 42-55] | 716 | 323 | 2780 | 518 | 325 | 273 | 316
5 | QRLDRDKPHEPNGY [YDL076C 274-287] | 52 | 37.3 | 105 | 218 | 12 | 104 | 19.3
6 | QGSNKYSPSSPLTT [YDR122W 964-977] | 37.5 | 44.3 | 74.9 | 171 | 31.3 | 34.7 | 146
7 | QTVIKTHPRIPKSE [YMR211W 94-107] | 9.1 | 67 | 134 | 186 | 17.1 | 213 | 63.7
8 | QHKPKVKPSKPEAK [YHL007C 236-249] | 70.6 | 88.9 | 12.8 | 956 | 40.3 | 2560 | 9.7
9 | QWSKRIMPYIPGPV [YBR200W 345-358] | 140 | 230 | 1820 | 296 | 145 | 123 | 109
10 | QSINRSIPSAPYGA [YBL081W 84-97] | 89 | 44.4 | 178 | 208 | 122 | 37.4 | 42.2

The next lines start with the values.

Row | normalised SPOT signal, Boehringer light units (BLU); mean over the file's lines of this peptide [1] | normalised SPOT signal, Boehringer light units (BLU); mean over the file's lines of this peptide [2] | normalised SPOT signal, Boehringer light units (BLU); mean over the file's lines of this peptide [3] | normalised SPOT signal, Boehringer light units (BLU); mean over the file's lines of this peptide [4] | normalised SPOT signal, Boehringer light units (BLU); mean over the file's lines of this peptide [5] | normalised SPOT signal, Boehringer light units (BLU); mean over the file's lines of this peptide [6] | normalised SPOT signal, Boehringer light units (BLU); mean over the file's lines of this peptide [7] | Binder
11 | 77.6 | 135 | 212 | 274 | 18.7 | 705 | 31.9 | RAGNREPPSTPSTL [YBR079C 874-887]
12 | 56.5 | 37.7 | 6.6 | 62.9 | 17.8 | 45.3 | 28.7 | QTGSKTVPQAPQAP [YLR095C 762-775]
13 | 90.1 | 9780 | 64.3 | 122 | 5.9 | 80.3 | 65.4 | QSKTKPLPVEPASP [YCR030C 484-497]
14 | 41.5 | 60100 | 1720 | 249 | 13.7 | 56.1 | 28.6 | QIVNKPLPPLPVAG [YJL128C 89-102]
15 | 20.6 | 36.1 | 109 | 197 | 16.6 | 88.1 | 18.1 | QSEEKEKPKGPMAV [YIL122W 8-21]
16 | 59.4 | 27.1 | 11.2 | 216 | 27.9 | 49.4 | 16.4 | QLQEKLSPDLPDEE [YGL173C 401-414]
